The record followed here is patent US7026148.

For the data set, the target named is bovine calmodulin (Sigma), P62157.

B1: FLAG-tagged wild type DRP-1 (DAP-kinase-related protein 1) (protein)
chain: MEPFKQQKVEDFYDIGEELGSGQFAIVKKCREKSTGLEYAAKFIKKRQSRASRRGVSREEIEREVSILRQVLHHNVITLHDVYENRTDVVHILELVSGGELFDFLAQKESLSEEEATSFIKQILDGVNYLHTKKIAHFDLKPENIMLLDKNIPIPHIKLIDFGLAHEIEDGVEFKNIFGTPEFVAPEIVNYEPLGLEADMWSIGVITYILLSGASPFLGDTKQETLANITSVSYDFDEEFFSHTSELAKDFIRKLLVKETRKRLTIQEALRHPWITPVDNQQAMVRRESVVNLENFRKQYVRRRWKLSFSIVSLCNHLTRSLMKKVHLRPDEDLRNCESDTEEDIARRKALHPRRRSSTS
Regarding B1, the “amount of phosphorylated MLC in the in vitro kinase assay” value is listed as “The addition of Ca2+/calmodulin to the reaction mixture increased the amount of phosphorylated MLC”.
